Among the data in the supplement of paper PMC10567573 are protein stability index values, retold here.

The chains are these.
B1: VPS39 (parent)
chain: ITEEKVCMVCKKKIGNSAFARYPN
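Also: lentivirally expressed fusions sorted by FACS into six bins by GFP to DsRed ratio, PSI derived from sequencing read proportions per bin multiplied by bin number.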

In the data set the parent is B1. Kind of data set: protein stability index of a GFP-peptide fusion (GPS, HEK-293T) (PSI 1-6); higher = more stable. Particulars: c terminus: a fixed tail appended.
As to ITEEKVCMVCKGKIGNSAFARYPN [K12G], the protein stability index was 1.97.

As for ITEEKVCMVCKDKIGNSAFARYPN [K12D], the protein stability index was found to be 2.63.

Turning to ITEEKVCMVCKMKIGNSAFARYPN [K12M], the protein stability index was 1.64.

As for ITEEKVCMVCKAKIGNSAFARYPN [K12A], the protein stability index is 2.28.

On to ITEEKVCMVCKVKIGNSAFARYPN [K12V], for which the protein stability index was determined as 1.74.

On to ITEEKVCMVCKYKIGNSAFARYPN [K12Y], for which the protein stability index was 1.88.

As to ITEEKVCMVCKQKIGNSAFARYPN [K12Q], the protein stability index was found to be 2.25.

Consider ITEEKVCMVCKHKIGNSAFARYPN [K12H], for which the protein stability index came out at 2.28.

ITEEKVCMVCKPKIGNSAFARYPN [K12P]: the protein stability index is 2.25.

Regarding ITEEKVCMVCKEKIGNSAFARYPN [K12E], the protein stability index is 2.46.

As to ITEEKVCMVCKSKIGNSAFARYPN [K12S], the protein stability index was 2.36.

For the variant ITEEKVCMVCKLKIGNSAFARYPN [K12L], the protein stability index was found to be 1.3.

As for ITEEKVCMVCKNKIGNSAFARYPN [K12N], the protein stability index came to 2.8.

Turning to ITEEKVCMVCKRKIGNSAFARYPN [K12R], the protein stability index is 1.83.

Turning to ITEEKVCMVCKWKIGNSAFARYPN [K12W], the protein stability index is 2.18.

For the variant ITEEKVCMVCKTKIGNSAFARYPN [K12T], the protein stability index was found to be 1.77.

For ITEEKVCMVCKFKIGNSAFARYPN [K12F], the protein stability index was found to be 1.68.

Regarding ITEEKVCMVCKCKIGNSAFARYPN [K12C], the protein stability index is 2.93.

Take ITEEKVCMVCKKKIGNMAFARYPN [S17M]: the protein stability index stood at 2.3.

ITEEKVCMVCKKKIGNHAFARYPN [S17H]: the protein stability index came out at 2.54.

For ITEEKVCMVCKKKIGNPAFARYPN [S17P], the protein stability index was 2.47.

Turning to ITEEKVCMVCKKKIGNGAFARYPN [S17G], the protein stability index came to 2.52.

As to ITEEKVCMVCKKKIGNAAFARYPN [S17A], the protein stability index stood at 2.19.

Consider ITEEKVCMVCKKKIGNVAFARYPN [S17V], for which the protein stability index was determined as 3.12.

Turning to ITEEKVCMVCKKKIGNIAFARYPN [S17I], the protein stability index was found to be 3.04.

As to ITEEKVCMVCKKKIGNRAFARYPN [S17R], the protein stability index came to 2.62.

Regarding ITEEKVCMVCKKKIGNQAFARYPN [S17Q], the protein stability index is 3.1.

ITEEKVCMVCKKKIGNWAFARYPN [S17W]: the protein stability index is 2.14.

Turning to ITEEKVCMVCKKKIGNCAFARYPN [S17C], the protein stability index turned out to be 2.67.

For the variant ITEEKVCMVCKKKIGNKAFARYPN [S17K], the protein stability index was 2.1.

Turning to ITEEKVCMVCKKKIGNNAFARYPN [S17N], the protein stability index amounted to 2.17.

With ITEEKVCMVCKKKIGNLAFARYPN [S17L], the protein stability index came to 2.07.

Take ITEEKVCMVCKKKIGNFAFARYPN [S17F]: the protein stability index was found to be 2.18.

With ITEEKVCMVCKKKIGNTAFARYPN [S17T], the protein stability index was 2.11.

On to ITEEKVCMVCKKKIGNYAFARYPN [S17Y], for which the protein stability index stood at 2.08.

On to ITEEKVCMVCKKKIGNDAFARYPN [S17D], for which the protein stability index was determined as 2.78.

On to ITEEKVCMVCKKKIGNEAFARYPN [S17E], for which the protein stability index was determined as 3.4.

Take ITEEKVCMVCKKKIINSAFARYPN [G15I]: the protein stability index is 2.8.

Consider ITEEKVCMVCKKKIYNSAFARYPN [G15Y], for which the protein stability index was 2.

Take ITEEKVCMVCKKKIKNSAFARYPN [G15K]: the protein stability index was determined as 2.55.

For the variant ITEEKVCMVCKKKINNSAFARYPN [G15N], the protein stability index worked out at 2.37.

Take ITEEKVCMVCKKKICNSAFARYPN [G15C]: the protein stability index stood at 2.98.

For ITEEKVCMVCKKKIVNSAFARYPN [G15V], the protein stability index was 2.86.

In the case of ITEEKVCMVCKKKIHNSAFARYPN [G15H], the protein stability index came out at 2.02.

Take ITEEKVCMVCKKKIRNSAFARYPN [G15R]: the protein stability index turned out to be 2.34.

ITEEKVCMVCKKKIDNSAFARYPN [G15D]: the protein stability index stood at 2.46.

For the variant ITEEKVCMVCKKKILNSAFARYPN [G15L], the protein stability index stood at 2.31.

As for ITEEKVCMVCKKKIENSAFARYPN [G15E], the protein stability index amounted to 2.78.

Take ITEEKVCMVCKKKIANSAFARYPN [G15A]: the protein stability index amounted to 1.39.

As to ITEEKVCMVCKKKIMNSAFARYPN [G15M], the protein stability index was 2.23.

Regarding ITEEKVCMVCKKKIPNSAFARYPN [G15P], the protein stability index was 2.45.

For ITEEKVCMVCKKKIQNSAFARYPN [G15Q], the protein stability index came out at 2.99.

Consider ITEEKVCMVCKKKISNSAFARYPN [G15S], for which the protein stability index stood at 2.54.

For the variant ITEEKVCMVCKKKITNSAFARYPN [G15T], the protein stability index turned out to be 2.81.

In the case of ITEEKVCMVCKKKIWNSAFARYPN [G15W], the protein stability index was determined as 2.35.

With ITEEKVCMVCKKKIFNSAFARYPN [G15F], the protein stability index turned out to be 2.35.

ITEEKVCMVCKKKPGNSAFARYPN [I14P]: the protein stability index amounted to 2.64.

For the variant ITEEKVCMVCKKKQGNSAFARYPN [I14Q], the protein stability index came to 2.14.

For the variant ITEEKVCMVCKKKWGNSAFARYPN [I14W], the protein stability index was found to be 2.1.

As to ITEEKVCMVCKKKFGNSAFARYPN [I14F], the protein stability index was 2.87.

For ITEEKVCMVCKKKGGNSAFARYPN [I14G], the protein stability index is 2.3.

As to ITEEKVCMVCKKKNGNSAFARYPN [I14N], the protein stability index was determined as 2.38.

Turning to ITEEKVCMVCKKKYGNSAFARYPN [I14Y], the protein stability index was determined as 2.66.

Consider ITEEKVCMVCKKKCGNSAFARYPN [I14C], for which the protein stability index was determined as 2.5.

Turning to ITEEKVCMVCKKKMGNSAFARYPN [I14M], the protein stability index was 3.

On to ITEEKVCMVCKKKHGNSAFARYPN [I14H], for which the protein stability index stood at 4.23.

Take ITEEKVCMVCKKKAGNSAFARYPN [I14A]: the protein stability index came out at 2.56.

Take ITEEKVCMVCKKKLGNSAFARYPN [I14L]: the protein stability index is 2.41.

ITEEKVCMVCKKKVGNSAFARYPN [I14V]: the protein stability index was found to be 1.79.

Consider ITEEKVCMVCKKKDGNSAFARYPN [I14D], for which the protein stability index amounted to 3.48.

With ITEEKVCMVCKKKKGNSAFARYPN [I14K], the protein stability index was 2.49.

For the variant ITEEKVCMVCKKKRGNSAFARYPN [I14R], the protein stability index was 2.67.

Take ITEEKVCMVCKKKEGNSAFARYPN [I14E]: the protein stability index amounted to 2.85.

For the variant ITEEKVCMVCKKKTGNSAFARYPN [I14T], the protein stability index stood at 3.06.

In the case of ITEEKVCMVCKKKSGNSAFARYPN [I14S], the protein stability index turned out to be 3.36.

ITEEKVCMVCKKKIGNSAFNRYPN [A20N]: the protein stability index was 2.32.

Turning to ITEEKVCMVCKKKIGNSAFVRYPN [A20V], the protein stability index was 2.38.

As to ITEEKVCMVCKKKIGNSAFRRYPN [A20R], the protein stability index was 2.62.

Regarding ITEEKVCMVCKKKIGNSAFYRYPN [A20Y], the protein stability index is 2.31.

Consider ITEEKVCMVCKKKIGNSAFMRYPN [A20M], for which the protein stability index was 2.43.

For the variant ITEEKVCMVCKKKIGNSAFFRYPN [A20F], the protein stability index was 2.34.

Consider ITEEKVCMVCKKKIGNSAFDRYPN [A20D], for which the protein stability index amounted to 2.62.

As to ITEEKVCMVCKKKIGNSAFHRYPN [A20H], the protein stability index is 2.38.

As to ITEEKVCMVCKKKIGNSAFTRYPN [A20T], the protein stability index came to 2.73.

Regarding ITEEKVCMVCKKKIGNSAFIRYPN [A20I], the protein stability index worked out at 3.49.

Turning to ITEEKVCMVCKKKIGNSAFERYPN [A20E], the protein stability index was 2.11.

Take ITEEKVCMVCKKKIGNSAFCRYPN [A20C]: the protein stability index is 2.56.

Consider ITEEKVCMVCKKKIGNSAFQRYPN [A20Q], for which the protein stability index is 2.74.

As for ITEEKVCMVCKKKIGNSAFWRYPN [A20W], the protein stability index worked out at 2.16.

On to ITEEKVCMVCKKKIGNSAFPRYPN [A20P], for which the protein stability index turned out to be 2.62.

For the variant ITEEKVCMVCKKKIGNSAFSRYPN [A20S], the protein stability index was determined as 3.16.

In the case of ITEEKVCMVCKKKIGNSAFLRYPN [A20L], the protein stability index worked out at 2.09.

ITEEKVCMVCKKKIGNSAFKRYPN [A20K]: the protein stability index stood at 2.26.

ITEEKVCMVCKKKIGNSAFGRYPN [A20G]: the protein stability index is 2.05.
